Measurements reported in patent publication US20090221680, “Aptamers that bind thrombin with high affinity” (published 2009).
Where two headings read alike, the source gives them in different places.

Tests used:
prothrombin = prothrombin (Homo sapiens, UniProt P00734 P00734:44-622); experiment: filter; 50 nM prothrombin; settings: tags: Athens Research
Procedure, shortened: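 Trace 5′-³²P-labeled RNA clones incubated ±50 nM prothrombin with 0.1 mg/ml BSA in 1×DPBS (with Ca²⁺/Mg²⁺), 30 min. Bound RNA captured on nitrocellulose, free RNA on nylon; filters quantified by phosphorimaging. Single-point screen.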

[1] = biological target: T1, thrombin (alpha-thrombin) (Homo sapiens, UniProt P00734;P00734 P00734:315-363,P00734:364-622); experiment: filter; DPBS Ca2+ Mg2+, 0.1 mg/ml BSA
[2] = biological target: thrombin (endogenous, clotting assay in plasma or whole blood) (Homo sapiens, UniProt P00734;P00734 P00734:328-363,P00734:364-622); experiment: inhibition; ACT at 10 uM
[3] = biological target: T1, thrombin (alpha-thrombin); experiment: filter; 10 nM thrombin
[4] = biological target: T1, thrombin (alpha-thrombin); experiment: filter; 10 nM thrombin; remark: listed apart in the source

For TCCCAATCGGTCCTGGTAATATATTGGTCGGGGTGGCTGAGGATCGATC (ssDNA) [AMX(399)_H3], the binding signal (prothrombin) was 45.5 % bound and the Kd [1] was 1.93 nM.

Binder GACTACCTCAGGGATGGTGTGGGTGGCTGAGGTAGTC (ssDNA) [ARC2177] has an activity [2] of 401 s.

With TCCTATCGATACGGGGTCTTCTATTGGGTCGGGGTGGCTGAGGATCGATC (ssDNA) [AMX(395)_E2] the binding signal [3] was 6.51 % bound.

For ACTGCCTAGGTTGGTGTGGTTGGTGGCAGT (ssDNA) [ARC2184], the activity [2] was 368 s.

With TCCCGATTTCGATTCTGGTAGTGTTTTCTGGGTGGCTGAGGATCGATC (ssDNA) [AMX(399)_E3] the binding signal [4] was 13 % bound and the binding signal (prothrombin) was 13.3 % bound.

Work on ACTACCTCAGGGATGGTGTGGGTGGCTGAGGTAGT (ssDNA) [ARC2176] yielded an activity [2] of 394 s.

With TCCCTAGATCGGGTCCTGGTAGTGTTTCTGGGTGGCTGAGGATCGATC (ssDNA) [AMX(399)_F5] the binding signal (prothrombin) was 49.3 % bound and the Kd [1] was 2.35 nM.

In the case of CTACCTCAGGGATGGTGTGGGTGGCTGAGGTAG (ssDNA) [ARC2175], the activity [2] is reported as 392 s.

GACTAACTGCCTAGGTTGGGTAGGGTGGTGGCAGTTAGTC (ssDNA) [ARC2182] showed an activity [2] of 518 s.

Binder TCCCGAGCGATACTGCCTAGGTTGGGTAGGGTGGTGGCTGAGGATCGATC (ssDNA) [AMX(398)_D6 (ARC2026)] has a Kd [1] of 0.29 nM.

AACTGCCTAGGTTGGGTAGGGTGGTGGCAGTT (ssDNA) [ARC2178] showed an activity [2] of 429 s.

With TCCCGGTCGTATTAGTGTGGGTGGTGTAGGGTGGTGGCTGAGGATCGATC (ssDNA) [AMX(395)_E11] the binding signal [3] was 33.7 % bound.

In the case of TCCCATCGAACCGCGGGTAATCTTATGGGTCGGGTGGCTGAGGATCGATC (ssDNA) [AMX(399)_E4], the binding signal [4] is reported as 7.5 % bound and the binding signal (prothrombin) is reported as 7.29 % bound.

TCCGATTGACGTGGTGGGTTACTGGTTTGGGTGGCTGAGGATCGATC (ssDNA) [AMX(398)_A1] showed a binding signal (prothrombin) of 18 % bound and a Kd [1] of 0.3 nM.

With TCCCGGGATCGAGTCCGATTAGGGATGGTGTGGGTGGCTGAGGATCGATC (ssDNA) [AMX(395)_B7] the Kd [1] was 14.5 nM.

In the case of TCCCACGGTCCTCACCTAGGATGGTTAGGGTGGTGGCTGAGGATCGATC (ssDNA) [AMX(395)_G2], the binding signal [3] is reported as 33.1 % bound.

TCCCGTTCGAGTCCTGGTGTTTTATTGGCCTGGGTGGCTGAGGATCGATC (ssDNA) [AMX(399)_D5] showed a binding signal (prothrombin) of 23.8 % bound and a Kd [1] of 2.26 nM.

TCCCATCGATCTGTGGTCTTTTTTGGTGTGGGTGGCTGAGGATCGATC (ssDNA) [AMX(399)_D12] gave a binding signal [4] of 32.6 % bound and a binding signal (prothrombin) of 32.2 % bound.

TCTCGATCGGACGTGGTGGGTTACTGGCTTGGGTGGCTGAGGATCGATC (ssDNA) [AMX(399)_D8] showed a binding signal [4] of 22.2 % bound and a binding signal (prothrombin) of 19.6 % bound.

For TCCCGGGTGGTTATCTTCTCAGGGATGGTGTGGGTGGCTGAGGATCGATC (ssDNA) [AMX(395)_C1], the Kd [1] was 7.48 nM.

TCCCGACTTCGATTACTCAGGGGTGGCTGTGGGTGGCTGAGGATCGATC (ssDNA) [AMX(395)_E4] was tested, and the binding signal [3] was 24 % bound.

With TCCCTCGATCTAAGGTGCTTTTAGTGGTTTGGGTGGCTGAGGATCGATC (ssDNA) [AMX(399)_D7] the binding signal [4] was 7.59 % bound and the binding signal (prothrombin) was 24.9 % bound.

Work on TCCCACGATCCGGGGTGTCTTTCGTGGGCTGGGTGGCTGAGGATCGATC (ssDNA) [AMX(399)_E1] yielded a binding signal [4] of 37.6 % bound and a binding signal (prothrombin) of 39.1 % bound.

TCCCAGAGAGCCGGGGTATAATTGTGGTGTGGGTGGCTGAGGATCGATC (ssDNA) [AMX(399)_D11] showed a binding signal [4] of 41.3 % bound and a binding signal (prothrombin) of 39.5 % bound.

TACCTCAGGGATGGTGTGGGTGGCTGAGGTA (ssDNA) [ARC2174] was tested, and the activity [2] was 416 s.

In the case of TCCCATCGATCTGTGGTGGTTTTGTGGTTTGGGTGGCTGAGGATCGATC (ssDNA) [AMX(399)_D10], the binding signal [4] is reported as 38.8 % bound and the binding signal (prothrombin) is reported as 40.8 % bound.

For TCCCAGGATCGATTCTGGTATTGTTGGTGGGGGTGGCTGAGGATCGATC (ssDNA) [AMX(399)_D9], the binding signal [4] was 20.3 % bound and the binding signal (prothrombin) was 19.7 % bound.

TCCCATCGATACGGGGTGGAATCTTGGGGTGGGTGGCTGAGGATCGATC (ssDNA) [AMX(399)_E9] showed a binding signal [4] of 14.8 % bound and a binding signal (prothrombin) of 13.8 % bound.

In the case of TCCCGCAATCGGTACTCAGGAGGATGGTTGGGGTGGCTGAGGATCGATC (ssDNA) [AMX(395)_B5], the binding signal [3] is reported as 17.1 % bound.

Work on TCCCGATTGTCATAGGTGGTTTGTCTGGGTAGGGTGGCTGAGGATCGATC (ssDNA) [AMX(399)_E10] yielded a binding signal [4] of 29.8 % bound and a binding signal (prothrombin) of 28.9 % bound.

TCCCGAGTGATCCGGGGTGTTTTTTTGGGTTGGGTGGCTGAGGATCGATC (ssDNA) [AMX(398)_E3] showed a binding signal (prothrombin) of 47.5 % bound and a Kd [1] of 0.89 nM.

Binder CCTCAGGGATGGTGTGGGTGGCTGAGGTTTTTT (ssDNA) [ARC2186] has an activity [2] of 408 s.

In the case of TCCCATCGAGCCGGGTATGTTTCGTTGGGCTGGGTGGCTGAGGATCGATC (ssDNA) [AMX(399)_E5], the binding signal [4] is reported as 15 % bound and the binding signal (prothrombin) is reported as 12.5 % bound.

With TCCCGTAATCGAGCCTGGTATTGTTGGCCTGGGTGGCTGAGGATCGATC (ssDNA) [AMX(395)_A11] the binding signal [3] was 35.8 % bound.

Work on CCTCAGGGATGGTGTGGGTGGCTGAGGTTT (ssDNA) [ARC2185] yielded an activity [2] of 384 s.

ACCTCAGGGATGGTGTGGGTGGCTGAGGT (ssDNA) [ARC2173] was tested, and the activity [2] was 415 s.

CTAACTGCCTAGGTTGGGTAGGGTGGTGGCAGTTAG (ssDNA) [ARC2180] was tested, and the activity [2] was 516 s.

With TAACTGCCTAGGTTGGGTAGGGTGGTGGCAGTTA (ssDNA) [ARC2179] the activity [2] was 462 s.

In the case of TCCCATGATCGTCAGATTCAGGGATGGTGTGGGTGGCTGAGGATCGATC (ssDNA) [AMX(395)_E8], the binding signal [3] is reported as 21.3 % bound.

TCCCGATCGCTGTCCTAGGATGGGTAGGGTGGTGGCTGAGGATCGATC (ssDNA) [AMX(399)_D2] showed a Kd [1] of 1.33 nM.

For TCCCAAGATCGGTACATACAGTGGGTGGTGAGGGTGGCTGAGGATCGATC (ssDNA) [AMX(395)_D11], the Kd [1] was 5.55 nM.

ACTAACTGCCTAGGTTGGGTAGGGTGGTGGCAGTTAGT (ssDNA) [ARC2181] showed an activity [2] of 478 s.

In the case of TCCTGAGGGATCAGGCTAGGTTGGGTAGGGTGGTGGCTGAGGATCGATC (ssDNA) [AMX(398)_C8 (ARC2027)], the binding signal (prothrombin) is reported as 48.5 % bound and the Kd [1] is reported as 0.42 nM.

Work on TCCCGAGTGTCATATCATCAGAGGTTGGAGTGGGTGGCTGAGGATCGATC (ssDNA) [AMX(395)_D5] yielded a binding signal [3] of 13.4 % bound.

For CCTCAGGGTTGGTGTGGTTGGCTGAGG (ssDNA) [ARC2183], the activity [2] was 354 s.

B1: AMX(395)_A4 (ssDNA)
DNA: TCCCGGGAGATCGCTTCGAAAATGGTTGGCGTGGGTGGCTGAGGATCGATC
In the case of B1, the Kd [1] is reported as 29.4 nM.

For TCCCATAGTATCGAGCCGATTGGATGGTCTGGGTGGCTGAGGATCGATC (ssDNA) [AMX(395)_F3], the binding signal [3] was 6.29 % bound.

For TCCCGGTCGAGTCCTCACGAAGGGTTGGGAGGGTGGCTGAGGATCGATC (ssDNA) [AMX(395)_E7], the binding signal [3] was 9.12 % bound.
